# Measured values from PMC10362797, “Phosphorylation of USP20 on Ser334 by IRAK1 promotes IL-1β-evoked signaling in vascular smooth muscle cells and vascular inflammation” (The Journal of Biological Chemistry, 2023).
# T1: TRAF6 (TNFR-associated factor 6), endogenous (mouse (endogenous in mouse SMCs), UniProt P70196 1-530)
# T1 construct: TRAF6, E3 ubiquitin ligase, endogenously expressed in mouse aortic smooth muscle cells; source: endogenous, mouse SMC lysate
# T1 sequence (looked up): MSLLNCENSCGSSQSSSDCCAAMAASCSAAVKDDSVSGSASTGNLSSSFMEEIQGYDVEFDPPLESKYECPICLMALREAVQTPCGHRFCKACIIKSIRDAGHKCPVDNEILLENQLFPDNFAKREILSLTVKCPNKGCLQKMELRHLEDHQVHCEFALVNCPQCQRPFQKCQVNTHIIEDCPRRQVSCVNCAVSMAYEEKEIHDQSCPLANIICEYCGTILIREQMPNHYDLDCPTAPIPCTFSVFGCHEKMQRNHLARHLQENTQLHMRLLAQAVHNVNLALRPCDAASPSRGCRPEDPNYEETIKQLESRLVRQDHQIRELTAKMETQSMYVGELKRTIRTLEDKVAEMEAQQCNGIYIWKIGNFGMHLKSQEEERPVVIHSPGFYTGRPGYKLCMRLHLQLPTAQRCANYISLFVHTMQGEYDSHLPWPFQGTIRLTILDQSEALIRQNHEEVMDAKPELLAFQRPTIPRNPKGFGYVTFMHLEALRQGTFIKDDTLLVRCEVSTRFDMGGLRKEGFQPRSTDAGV
# Target: T1, TRAF6 (TNFR-associated factor 6), …
# Experiment: co-IP; endogenous TRAF6 immunoprecipitated with anti-TRAF6(D-10) agarose overnight at 4 °C from lysates of mouse SMCs transduced with HA-USP20, serum starved 1 h and stimulated with IL-1β (1 ng/ml, 20 min); lysis buffer 50 mM Hepes pH 7.5, 2 mM EDTA, 250 mM NaCl, 10% glycerol, 0.5% Nonidet P-40; immunoblot for HA
# Settings: partners not purified
binder,measurement,value
"HA-tagged USP20-S334A (mouse) (enzyme, UniProt Q8C6M1 1-916, looked up, Mimics unphosphorylated USP20; source: mouse SMCs, transduced with recombinant adenovirus, in protein extract/lysate; not shown: HA, N-terminal, kept) MGDARDLCPHLDCIGEVTKEDLLLKSKGTCQSCGVAGPNLWACLQVTCPYVGCGESFADHSSIHAQVKKHNLTVNLTTFRVWCYACEREVFLEQRLAVHLASSSARLSEQDSPPPSHPLKAVPIAVADEGESESEDDDLKPRGLTGMKNLGNSCYMNAALQALSNCPPLTQFFLECGGLVRTDKKPALCKSYQKLISEVWHKKRPSYVVPTSLSHGIKLVNPMFRGYAQQDTQEFLRCLMDQLHEELKEPMVAAVAALTDARDSDSSDTDERRDGDRSPSEDEFLSCDSSSDRGEGDGQGRGGGSSKAEMELLISDEAGRAISEKERMKDRKFAWGQQRTNSEQVDEDADVDTAMASLDEQSREAQPPSPRSTSPCQTPEPDNEAHIRSSSRPCSPVHHHHEGHSKLSSSPPRASPVRMGPSYVLKKAQVPSTGGRRRKEQSYRSVISDVFNGSVLSLVQCLTCDRVSTTVETFQDLSLPIPGKEDLAKLHSAIYQNVPAKPGACGDSYSSQGWLAFIVEYIRRFVVSCTPSWFWGPVVTLEDCLAAFFAADELKGDNMYSCERCKKLRNGVKYCKVLCLPEILCVHLKRFRHEVMYSFKVSSHVSFPLEGLDLRPFLAKECTSQVTTYDLLSVICHHGTAGSGHYIAYCQNVINGQWYEFDDQYVTEVHETVVQNVEAYVLFYRKSSEEAMRERQQVVSLAAMREPSLLRFYVSREWLNKFNTFAEPGPITNHTFLCSHGGIPPNKYHYIDDLVVILPQSVWEHLYSRFGGGPAVNHLYVCSICQVEIEALAKRRRVEIDTFIKLNKAFQAEESPAVIYCISMHWFREWEAFVKGKDSEPPGPIDNSRIAQVKGSGHIQLKQGADCGQISEETWTYLSSLYGGGPEIAIRQSVAQLPDPESLHGEQKIEAETRAL",fold of USP20-WT in TRAF6 immunoprecipitates,~2.2 fold
